# Test results: the supplement of paper PMC9170038
# Test system: K4 kissing-loop RNA reporter
# Experiment: apparent KD of K4 kissing-loop reporter; higher = weaker reporter binding
# Settings: Eterna round: R107; input ligand: none
# Protocol: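 RNA-MaP round R107: designed RNA switches with theophylline, tryptophan, arginine or FMN aptamers are transcribed on-chip within common flanks. They are titrated with a labelled K4 kissing-loop RNA reporter in RNA-MaP buffer (100 mM Tris pH 7.5, 80 mM KCl, 4 mM MgCl2), without ligand or with the indicated ligand. Median apparent KD per design.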
# 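Also: bound reporter read as fluorescence of individual clusters on recovered sequencing chips by microscopy, with normalized cluster intensities fitted with a binding model.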
row,Sequence,apparent KD of K4 kissing-loop reporter [nM]
1,UGUCAUUGGUCGGCCGCCACUACAAGGUCAAAGACCAAAGAGUGAUGUUCUUAGACGAAAGUCAGUAGGACCGGGACCGAUGACU [TrypBS 8 #SwitchBubble #K4Middle],1320
2,CCGGGCGGCUGAAGGAGCGGGCGGGCCCGAGUGAUGUUCGGGUGGGCCGUGAGGCCCGGAGCCCAGGUAGGUCGCGGUUCCGUCC [#2 Same State - Arginine B Attempt #18 (HarryS)],167
3,UGUGGAGAAUAUGAUACCAGCAGUGAGAGAGAGGAAGUAUAGUGAUGUUAUAUGAGAGAAUGCCCUUGGCAGCAUAUGUAGAAGG [SSTheophylB.F],107
4,UAAGAAUAAGUAGCAGUGAUGUUGCUACUACGAGGACCGGUACGGCCGCCACUCGAGCCGUACCAUAACAUCACUGAGGUACGAA [(H1)-(H2)-(Trp1)-(Trp2)-(T)'-(H)'-(T)''],264
5,UCCUAGGCUCGAAAGAGCCUAGGAUAUACUCAGGAUAUCCGGAAACGGAGAAGGGAGUAACUAGUGAUGUUAGGGAUUCCCUAUU,109
6,ACGUCACGUAUACUGGUGGUUUCGAUCGAUACCAGUAGCGAGAGUUACCCUUGGCAGCGACAUGAGUGAUGUUCAUGUAUGAAGA [KL-XTheo-A1 #analogue],102
7,GGAUCCACCAGUGAUGUUGGAGAAAACUCGAAGGAUAUGACGAAAGUCAGAAGGUCGUAGACUGGACAAAGUCCGGUCGGAUCCA [FmnA 19 G30+C56],539
8,GCAGUCAAUCAACCACGAAAGUGGAUGGAUACCAGCCCGAAACCGGGCCCUUGGCAGCCAGUGAUGUUGGAAGACUGCUUUAAAA [#SwitchBubble 15 #K4Late],607
9,GGUUUAUAGGAGGAUACCAGUACGAAUAAAGUACAUUAAUAGUAGAGUGAUGUUCUAAAGUACCCUUGGCAGCUUAGAGUAAGUU [#18 K4 Theophylline B Exclusion],148

# Same assay, conditions: Eterna round: R107; input ligand: theophylline 20 uM
row,Sequence,apparent KD of K4 kissing-loop reporter [nM]
1,GCCGUAGAUUGAAGGAGCGCCAUCUUACCAAGAGUGAUGUUCUUUGGUACCAUGUACAGCUGGCAGGUAGGUCGCAAUCUACGGC,181
2,UGAUAGGACAGAAGGAGCGGAAGUGAUGUUUCCAAAAGAUAUGAUCGACAAAGUCGAUUUUUCCAGGUAGGUCGCUGUCCUAUCU [KL-XARG-B19],100
3,UACUAUAGUGAUGUUAUAGAUAAACCAGAUACCAGUGUAACAUAACACCCUUGGCAGCUGAUGAGGGAAGAUAUCAAAAGAUAUC [AstroSTH-A#9newdesignED4.70],247
4,CGAGCUUCCUGGGAUACCAGUCGGAGUCUCAGAGCUCGGAGUGAUGUUCUGGGAUGUUUCGGCCCUUGGCAGCUCUGGGACUCCU [#2 Exclusion - Theophylline B Attempt #20 (HarryS)],883
5,GGUAGCAUGGCGGCCGCCACUACCUAGUGAUGUUAGGCUGUGGACAUAGGAGCAAGAUAAAUAUGUAGGACCGGGCCAUGCUACC,119
6,AAACGUUGGUCGGAUACCAGCUUGAUCGGAAACGAUCUGCUGGAGUGAUGUUCCAAGUAAAGCCCUUGGCAGCCGACCGACGAAA [MAT - Same State Theophlline B - Mod of Eli - D18],95.4
7,AAGAGAGCGAGAAGGAGCGAGAAAGCUAGUGCAUAUGCACUAGCAAAGCAGUGAUGUUGCACUCAGGUAGGUCGCUCGCUCUCAA [AK1.2 SS Arginine B],395
8,ACACUAUCGUCAUAGACGGUAGUGAAAGCUGAGGAUAUGAGUGAUGUUAGAAGGUAGCAAGACUGUAUCGAAUAGAUACAGUCAA [FmnA 5 #K4BetweenAptamer #OpenEnded],162
9,UGUCAUUGGUCGGCCGCCACUACAAGGUCAAAGACCAAAGAGUGAUGUUCUUAGACGAAAGUCAGUAGGACCGGGACCGAUGACU [TrypBS 8 #SwitchBubble #K4Middle],674
10,CCGGGCGGCUGAAGGAGCGGGCGGGCCCGAGUGAUGUUCGGGUGGGCCGUGAGGCCCGGAGCCCAGGUAGGUCGCGGUUCCGUCC [#2 Same State - Arginine B Attempt #18 (HarryS)],196
11,UGUGGAGAAUAUGAUACCAGCAGUGAGAGAGAGGAAGUAUAGUGAUGUUAUAUGAGAGAAUGCCCUUGGCAGCAUAUGUAGAAGG [SSTheophylB.F],93.6
12,UAAGAAUAAGUAGCAGUGAUGUUGCUACUACGAGGACCGGUACGGCCGCCACUCGAGCCGUACCAUAACAUCACUGAGGUACGAA [(H1)-(H2)-(Trp1)-(Trp2)-(T)'-(H)'-(T)''],292
13,UCCUAGGCUCGAAAGAGCCUAGGAUAUACUCAGGAUAUCCGGAAACGGAGAAGGGAGUAACUAGUGAUGUUAGGGAUUCCCUAUU,98.7
14,ACGUCACGUAUACUGGUGGUUUCGAUCGAUACCAGUAGCGAGAGUUACCCUUGGCAGCGACAUGAGUGAUGUUCAUGUAUGAAGA [KL-XTheo-A1 #analogue],113
15,GGAUCCACCAGUGAUGUUGGAGAAAACUCGAAGGAUAUGACGAAAGUCAGAAGGUCGUAGACUGGACAAAGUCCGGUCGGAUCCA [FmnA 19 G30+C56],490
16,GCAGUCAAUCAACCACGAAAGUGGAUGGAUACCAGCCCGAAACCGGGCCCUUGGCAGCCAGUGAUGUUGGAAGACUGCUUUAAAA [#SwitchBubble 15 #K4Late],219
17,GGUUUAUAGGAGGAUACCAGUACGAAUAAAGUACAUUAAUAGUAGAGUGAUGUUCUAAAGUACCCUUGGCAGCUUAGAGUAAGUU [#18 K4 Theophylline B Exclusion],223

# Same assay, conditions: Eterna round: R107; input ligand: tryptophan 2.4 mM
row,Sequence,apparent KD of K4 kissing-loop reporter [nM]
1,GCCGUAGAUUGAAGGAGCGCCAUCUUACCAAGAGUGAUGUUCUUUGGUACCAUGUACAGCUGGCAGGUAGGUCGCAAUCUACGGC,169
2,UGAUAGGACAGAAGGAGCGGAAGUGAUGUUUCCAAAAGAUAUGAUCGACAAAGUCGAUUUUUCCAGGUAGGUCGCUGUCCUAUCU [KL-XARG-B19],66.6
3,UACUAUAGUGAUGUUAUAGAUAAACCAGAUACCAGUGUAACAUAACACCCUUGGCAGCUGAUGAGGGAAGAUAUCAAAAGAUAUC [AstroSTH-A#9newdesignED4.70],199
4,CGAGCUUCCUGGGAUACCAGUCGGAGUCUCAGAGCUCGGAGUGAUGUUCUGGGAUGUUUCGGCCCUUGGCAGCUCUGGGACUCCU [#2 Exclusion - Theophylline B Attempt #20 (HarryS)],797
5,GGUAGCAUGGCGGCCGCCACUACCUAGUGAUGUUAGGCUGUGGACAUAGGAGCAAGAUAAAUAUGUAGGACCGGGCCAUGCUACC,111
6,AAACGUUGGUCGGAUACCAGCUUGAUCGGAAACGAUCUGCUGGAGUGAUGUUCCAAGUAAAGCCCUUGGCAGCCGACCGACGAAA [MAT - Same State Theophlline B - Mod of Eli - D18],71.6
7,AAGAGAGCGAGAAGGAGCGAGAAAGCUAGUGCAUAUGCACUAGCAAAGCAGUGAUGUUGCACUCAGGUAGGUCGCUCGCUCUCAA [AK1.2 SS Arginine B],291
8,ACACUAUCGUCAUAGACGGUAGUGAAAGCUGAGGAUAUGAGUGAUGUUAGAAGGUAGCAAGACUGUAUCGAAUAGAUACAGUCAA [FmnA 5 #K4BetweenAptamer #OpenEnded],141
9,UGUCAUUGGUCGGCCGCCACUACAAGGUCAAAGACCAAAGAGUGAUGUUCUUAGACGAAAGUCAGUAGGACCGGGACCGAUGACU [TrypBS 8 #SwitchBubble #K4Middle],274
10,CCGGGCGGCUGAAGGAGCGGGCGGGCCCGAGUGAUGUUCGGGUGGGCCGUGAGGCCCGGAGCCCAGGUAGGUCGCGGUUCCGUCC [#2 Same State - Arginine B Attempt #18 (HarryS)],140
11,UGUGGAGAAUAUGAUACCAGCAGUGAGAGAGAGGAAGUAUAGUGAUGUUAUAUGAGAGAAUGCCCUUGGCAGCAUAUGUAGAAGG [SSTheophylB.F],128
12,UAAGAAUAAGUAGCAGUGAUGUUGCUACUACGAGGACCGGUACGGCCGCCACUCGAGCCGUACCAUAACAUCACUGAGGUACGAA [(H1)-(H2)-(Trp1)-(Trp2)-(T)'-(H)'-(T)''],272
13,UCCUAGGCUCGAAAGAGCCUAGGAUAUACUCAGGAUAUCCGGAAACGGAGAAGGGAGUAACUAGUGAUGUUAGGGAUUCCCUAUU,96.5
14,ACGUCACGUAUACUGGUGGUUUCGAUCGAUACCAGUAGCGAGAGUUACCCUUGGCAGCGACAUGAGUGAUGUUCAUGUAUGAAGA [KL-XTheo-A1 #analogue],95.7
15,GGAUCCACCAGUGAUGUUGGAGAAAACUCGAAGGAUAUGACGAAAGUCAGAAGGUCGUAGACUGGACAAAGUCCGGUCGGAUCCA [FmnA 19 G30+C56],461
16,GCAGUCAAUCAACCACGAAAGUGGAUGGAUACCAGCCCGAAACCGGGCCCUUGGCAGCCAGUGAUGUUGGAAGACUGCUUUAAAA [#SwitchBubble 15 #K4Late],337
17,GGUUUAUAGGAGGAUACCAGUACGAAUAAAGUACAUUAAUAGUAGAGUGAUGUUCUAAAGUACCCUUGGCAGCUUAGAGUAAGUU [#18 K4 Theophylline B Exclusion],80.5
